Where “and” joins values, the source holds several entries; their conditions need not be identical. Equal values may be shown once.
T1: human LAIR1 on cells (human, UniProt Q6GTX8 22-287)
T1 construct: also called hLAIR1; Jurkat-hLAIR1+
T1 sequence: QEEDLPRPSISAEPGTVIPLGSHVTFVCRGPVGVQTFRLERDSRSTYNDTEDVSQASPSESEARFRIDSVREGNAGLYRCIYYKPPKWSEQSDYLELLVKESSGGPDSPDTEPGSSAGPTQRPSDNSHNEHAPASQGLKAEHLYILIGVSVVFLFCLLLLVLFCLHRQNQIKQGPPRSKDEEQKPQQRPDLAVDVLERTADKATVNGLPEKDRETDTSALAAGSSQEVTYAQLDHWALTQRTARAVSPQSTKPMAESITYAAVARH

T2: soluble, extracellular domain (ECD) of LAIR1 (human, UniProt Q6GTX8 22-163)
T2 construct: Produced recombinantly; also called LAIR1-ECD; LAIR1 ECD protein
T2 chain: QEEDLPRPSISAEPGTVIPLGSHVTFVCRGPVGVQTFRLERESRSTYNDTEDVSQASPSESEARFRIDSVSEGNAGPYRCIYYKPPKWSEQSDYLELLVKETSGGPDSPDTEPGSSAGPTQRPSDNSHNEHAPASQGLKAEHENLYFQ

T3: LAIR2 (human, UniProt Q6ISS4 22-152)
T3 construct: also called human LAIR2
T3 sequence (looked up): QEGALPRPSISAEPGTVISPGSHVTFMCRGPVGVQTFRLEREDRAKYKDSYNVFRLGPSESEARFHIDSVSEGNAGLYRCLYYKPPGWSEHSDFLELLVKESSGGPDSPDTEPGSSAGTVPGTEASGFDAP


Key:
[1] = target: T1, human LAIR1 on cells; assay: flow cytometry, primary human CD4+ T cells (endogenous LAIR1)
Method: (§1) The anti-human LAIR1 antibodies were evaluated for binding to human and cynomolgus monkey (cyno) LAIR1 engineered cell lines and primary human T cells that endogenously express LAIR1. Jurkat-hLAIR1+ (Jurkat cell overexpressing human LAIR1), Jurkat-LAIR1ko (Jurkat cell knocking out human LAIR1), Jurkat-cyLAIR1+ cells (Jurkat LAIR1ko cell expressing cyno LAIR1), and primary human T cells were incubated with the anti-human LAIR1 test antibodies. […] Cells were then washed and incubated with anti-human IgG Alexa Fluor 647 secondary antibody for 20 minutes at 4° C. Cells were then washed and antibody binding was evaluated by flow cytometry. For primary human T cells, cells were also stained for CD4 and CD8 to delineate CD4+ and CD8+ T cells.

[2] = target: T1, human LAIR1 on cells; assay: cell-based or functional assay
[3] = target: cynomolgus monkey LAIR1 on cells (cynomolgus monkey); assay: cell-based or functional assay
[4] = target: T1, human LAIR1 on cells; assay: cell-based or functional assay; remark: listed apart in the source
[5] = target: T1, human LAIR1 on cells; assay: flow cytometry, primary human CD8+ T cells (endogenous LAIR1)
Method: as §1

[6] = target: T1, human LAIR1 on cells; assay: flow cytometry, Jurkat-hLAIR1+ cells
Method: as §1

[7] = target: T4, cynomolgus monkey LAIR1 on cells (cynomolgus monkey); assay: flow cytometry, Jurkat-cyLAIR1+ cells
T4 construct: whole, on cells; Jurkat LAIR1ko cells expressing cyno LAIR1; also called cyno LAIR1; cyLAIR1
Method: as §1

[8] = target: T2, soluble, extracellular domain (ECD) of …; assay: SPR, Biacore 8K, 37 °C, antibody captured on anti-human kappa, LAIR1-ECD as analyte
Method: Antibody binding affinity and kinetics were determined by surface plasmon resonance (SPR) using a Biacore 8K (Cytivia Life Sciences). Measurements were performed at 37° C. using HBS-EP+ as the running buffer (150 mM sodium chloride, 3 mM EDTA, 0.05% (w/v) surfactant P-20, and 10 mM HEPES, pH7.4). Binding experiments used the soluble, extracellular domain (ECD) of LAIR1 (SEQ ID NO: 17), produced recombinantly, which was diluted to working concentration in HBS-EP+ containing 0.1 mg/mL Bovine serum albumin. Goat anti-Human kappa (Southern Biotech) was immobilized on all eight flow cells of a CM4 sensor chip using an amine coupling kit.
Binding was evaluated using multiple analytical cycles. Each cycle is performed at a flow rate of 30 μL/minute and consists of the following steps: injection of antibody over a different flow cell (25 μL of antibody at 0.5 μg/mL at 10 μL/minute), injection of 75 μL (30 μL/min, for 150 seconds) of each LAIR1-ECD dilution (starting at 1 μM and using three-fold serial dilutions to 1.4 nM for each cycle, with one injection for each concentration) followed by a 1200 second delay for dissociation, and chip surface regeneration using three 15 μL injections (30 μL/min, for 30 seconds) of 10 mM glycine hydrochloride, pH1.7. Association and dissociation rates for each cycle were determined by fitting of the biosensor data to a simple 1:1 association model using the provided instrument analysis software to extract the kₒₙ and koff rate constants; the equilibrium binding constant KD was calculated using the relationship Kd=koff/kₒₙ.

[9] = target: T1, human LAIR1 on cells; assay: cell-based or functional assay; remark: listed apart in the source
[10] = target: T1, human LAIR1 on cells; assay: cell-based or functional assay; remark: listed apart in the source
[11] = target: T1, human LAIR1 on cells; assay: in vivo receptor occupancy by FACS on splenocytes, CD4 T cells; fit table; log10 of the dose, unit not given
[12] = target: T1, human LAIR1 on cells; assay: in vivo receptor occupancy by FACS on splenocytes, CD8 T cells; fit table; log10 of the dose, unit not given
Source text: Human peripheral blood mononuclear cells (PBMCs) were engrafted into NSG mice where the human immune cells recognize the mouse as foreign and mount an immune response resulting in Graft versus Host Disease (GvHD). […] Blood was obtained on day 5 by retro-orbital sinus and day 8 by cardiac puncture and processed for analyses of serum cytokines (MSD human pro-inflammatory cytokine panel) and drug exposure (antigen capture ELISA).

[13] = target: T5, Human C1q (human, UniProt P02745 23-245; P02746 28-253; P02747 29-245); assay: ELISA: antibody coated on the plate at the concentration shown, human C1q added at 10 ug/mL, detection with sheep anti-human C1q-HRP, OD450
T5 construct: Bought (MS Biomedical); also called complement component C1q
Method: Testing was performed in duplicate wells. The plate was sealed and incubated overnight at 4° C. The coating reagent was removed from each well, and 200 μL/well of casein blocking reagent (Thermo) was added. The plate was sealed and incubated for 2 hours at room temperature (RT). Each well was washed 3 times with wash buffer (1×TBE with 0.05% Tween 20). One hundred microliters per well of Human C1q (MS Biomedical) at 10 μg/mL diluted in casein blocking reagent was added and incubated for 3 hours at RT. The plate was then washed three times with wash buffer before 100 μL/well of a 1:800 times dilution of Sheep anti-human C1q-HRP (Abcam #ab46191) in casein blocker was added and incubated for 1 hour at RT. The plate was washed 6 times with wash buffer, and 100 μL/well of TMB Substrate (Pierce) was added to each well and incubated for 7 minutes. […] Optical density was immediately measured using a colorimetric microplate reader set to 450 nm.

[14] = target: T1, human LAIR1 on cells; assay: in vivo receptor occupancy by FACS on splenocytes, Treg; fit table; log10 of the dose, unit not given
[15] = target: T3, LAIR2; assay: ELISA on hLAIR2, O.D.560 against antibody concentration

T5 sequence (P02745 23-245 limits assumed, chain 1 of 3): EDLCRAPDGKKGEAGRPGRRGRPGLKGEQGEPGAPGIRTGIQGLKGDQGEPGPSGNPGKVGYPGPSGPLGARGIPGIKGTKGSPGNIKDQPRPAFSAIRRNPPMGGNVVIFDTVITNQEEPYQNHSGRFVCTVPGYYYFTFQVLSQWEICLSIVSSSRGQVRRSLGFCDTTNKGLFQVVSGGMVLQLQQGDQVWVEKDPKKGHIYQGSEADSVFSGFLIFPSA
T5 sequence (P02746 28-253 limits assumed, chain 2 of 3): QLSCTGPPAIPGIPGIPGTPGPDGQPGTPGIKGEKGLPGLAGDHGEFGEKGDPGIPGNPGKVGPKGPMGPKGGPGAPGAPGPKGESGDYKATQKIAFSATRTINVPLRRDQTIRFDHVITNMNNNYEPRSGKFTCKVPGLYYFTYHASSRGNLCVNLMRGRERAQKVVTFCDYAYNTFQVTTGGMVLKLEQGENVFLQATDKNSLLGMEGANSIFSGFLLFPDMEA
T5 sequence (P02747 29-245 limits assumed, chain 3 of 3): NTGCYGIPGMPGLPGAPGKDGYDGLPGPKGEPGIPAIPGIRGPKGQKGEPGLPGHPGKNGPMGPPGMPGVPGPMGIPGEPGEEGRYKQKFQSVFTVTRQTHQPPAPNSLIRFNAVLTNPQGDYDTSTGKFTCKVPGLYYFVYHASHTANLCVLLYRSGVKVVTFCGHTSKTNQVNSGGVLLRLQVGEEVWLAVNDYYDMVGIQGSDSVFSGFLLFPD

| EC50 [1] [µg/mL] | Inhibition of IL-6 response at 8 ng/mL (% inhibition vs. no antibody), primary human B cells [2] [%] | Inhibition of NFAT Activity (% inhibition vs. no antibody), Jurkat-cyLAIR1+ [3] [%] | IC50 of antibody activity, Jurkat-hLAIR1+ NFAT [4] [µg/mL] | Inhibition of NFAT Activity (% inhibition vs. no antibody), Jurkat-hLAIR1+ [4] [%] | EC50 [5] [µg/mL] | EC50 [6] [µg/mL] | EC50 [7] [µg/mL] | Kd [8] [pM] | koff [8] [s⁻¹] | kon [8] [M⁻¹ s⁻¹] | Inhibition of IFN-γ response at 1 µg/mL (% inhibition vs. no antibody), primary human T cells [9] [%] | IC50 of inhibition of B cell IL-6 response to BCR stimulation [10] | IC50 of inhibition of Jurkat-hLAIR1+ NFAT activation [10] [pM] | LogIC50 of % receptor occupancy, CD4 T cells [11] | LogIC50 of % receptor occupancy, CD8 T cells [12] | binding result [13] | LogIC50 of % receptor occupancy, Treg [14] | binding result [15] | Binder |
| --- | --- | --- | --- | --- | --- | --- | --- | --- | --- | --- | --- | --- | --- | --- | --- | --- | --- | --- | --- |
| 0.037 | 60.2 | 44.2 | 0.00942 | 54.2 | 0.0489 | 0.0548 | 0.0784 | 121 | 0.000174 | 1.44e+06 | 35.7 | – | – | – | – | – | – | – | mAb1 (antibody, human IgG2, kappa, also called anti-human LAIR1 antibody mAb1) heavy: QVQLQESGPGLVKPSETLSLTCTAFGGSISGHYWSWIRQPAGKGLEWIGRIYPSGGTNKNPSLKSRVTMSVDTSKNQFSLKLSSVTAADTAVYYCVRDYWDDYYGMDVWGQGTTVTVSSASTKGPSVFPLAPSSRSTSESTAALGCLVKDYFPEPVTVSWNSGALTSGVHTFPAVLQSSGLYSLSSVVTVPSSNFGTQTYTCNVDHKPSNTKVDKTVERKCCVECPPCPAPPVAGPSVFLFPPKPKDTLMISRTPEVTCVVVDVSHEDPEVQFNWYVDGMEVHNAKTKPREEQFNSTFRVVSVLTVVHQDWLNGKEYKCKVSNKGLPAPIEKTISKTKGQPREPQVYTLPPSREEMTKNQVSLTCLVKGFYPSDIAVEWESNGQPENNYKTTPPMLDSDGSFFLYSKLTVDKSRWQQGNVFSCSVMHEALHNHYTQKSLSLSPG light: not shown |
| 0.0162 | 42.7 | 65.5 | 0.00666 | 60.4 | 0.0349 | 0.0565 | 0.0893 | 291 | 0.000317 | 1.09e+06 | 41.1 | 0.0002 nM and 0.03 ng/mL | 45 | -0.933 | -0.864 | no binding (tested: 10 ug/mL) | -0.771 | no binding (tested: 10 ug/ml) | mAb4 (antibody, human IgG4 S228P, kappa, also called anti-human LAIR1 mAb4; LAIR1 agonist antibody) heavy: not shown light: DIVMTQSPLSLPVTPGEPASISCRSSPSLLHSDGYNWLDWYLQKPGQSPQLLIYLGSNRASGVPDRFSGSGSGTDFTLKISRVEAEDVGVYYCMQAHQTPFTFGQGTKVEIKRTVAAPSVFIFPPSDEQLKSGTASVVCLLNNFYPREAKVQWKVDNALQSGNSQESVTEQDSKDSTYSLSSTLTLSKADYEKHKVYACEVTHQGLSSPVTKSFNRGEC |
| 0.0288 | 35.4 | 59.6 | 0.00858 | 49.8 | 0.0414 | 0.058 | 0.0824 | 312 | 0.000341 | 1.09e+06 | 45.8 | – | – | – | – | – | – | – | mAb2 (antibody, human IgG2, kappa, also called anti-human LAIR1 antibody mAb2) heavy: QVQLQESGPGLVKPSETLSLTCTVSGGSISNNYWSWIRQPAGKGLEWIGRMYSSGSTQKNPSLKSRVTMSVDTSKNQFSLKLSSVTAADTAVYYCVRGPNWGSPYYGVDVWGQGTTVTVSSASTKGPSVFPLAPSSRSTSESTAALGCLVKDYFPEPVTVSWNSGALTSGVHTFPAVLQSSGLYSLSSVVTVPSSNFGTQTYTCNVDHKPSNTKVDKTVERKCCVECPPCPAPPVAGPSVFLFPPKPKDTLMISRTPEVTCVVVDVSHEDPEVQFNWYVDGMEVHNAKTKPREEQFNSTFRVVSVLTVVHQDWLNGKEYKCKVSNKGLPAPIEKTISKTKGQPREPQVYTLPPSREEMTKNQVSLTCLVKGFYPSDIAVEWESNGQPENNYKTTPPMLDSDGSFFLYSKLTVDKSRWQQGNVFSCSVMHEALHNHYTQKSLSLSPG light: DIVMTQSPLSLPVTPGEPASISCRSSPSLLHSDGYNWLDWYLQKPGQSPQLLIYLGSNRASGVPDRFSGSGSGTDFTLKISRVEAEDVGVYYCMQAHQTPFTFGQGTKVEIKRTVAAPSVFIFPPSDEQLKSGTASVVCLLNNFYPREAKVQWKVDNALQSGNSQESVTEQDSKDSTYSLSSTLTLSKADYEKHKVYACEVTHQGLSSPVTKSFNRGEC |

Source: patent US20240101670A1 (Eli Lilly, published 2024)
